In assay [1] the target is T1, Francisella tularensis SchuS4 recombinant GroEL with N-terminal His tag (Francisella tularensis subsp. …, UniProt Q5NEE1).
T1 construct: source: E. coli BL21(DE3)pLysS, pET14b, IPTG induced, in BugBuster lysate; not shown: His6, N-terminal, kept
Description: Western blot. Conditions: one partner purified. On the technique in general: A western blot detects proteins with antibodies after separation by electrophoresis.

Assay [2] deals with T2, purified FtGroEL used in the DXMS experiments (Francisella tularensis, strain not …, UniProt Q5NEE1).
T2 construct: copies: 14
Description: HDX-MS. The following applies: both partners purified.

Assay [3] addresses T3, GroEL of Francisella tularensis SchuS4, endogenous (Francisella tularensis subsp. …, UniProt Q5NEE1).
T3 construct: source: endogenous, SchuS4 NP40 lysate
The experiment in a line: ELISA. The following applies: one partner purified. Background: In an ELISA, binding on a coated surface is turned into a signal by an enzyme label.

Assay [4] addresses T4, Escherichia coli GroEL, endogenous (Escherichia coli TG1 (K-12) and BL21, UniProt P0A6F5).
T4 construct: also called EcGroEL
Description: ELISA. Conditions: one partner purified.

The target of assay [5] is Francisella tularensis LVS recombinant GroEL with N-terminal His tag (Francisella tularensis subsp. …, UniProt P94798, strain). The experiment in a line: ELISA. Conditions: one partner purified.
In assay [6] the target is GroEL of Francisella tularensis LVS, endogenous (Francisella tularensis subsp. …, UniProt P94798, strain). Description: competition Western blot. Conditions: one partner purified.
Assay [7] has as its target T4, Escherichia coli GroEL, endogenous. The experiment in a line: Western blot. Conditions: one partner purified.
For assay [8], the target named is T1, Francisella tularensis SchuS4 …. Description: ELISA. Conditions: one partner purified.

B1: Ab64 mouse monoclonal antibody (IgG2a,κ) specific for FtGroEL (antibody, V domains shown)
VH: EVQLLESGPELVRLGASVKVSCKASGYSFTDYNMYWVKQSHGKSLEWIGYIDPYNGDASYNQKFKGKATLTVDKSSSTAFMHLNSLTSEDSAVYYCARTGYYYGRSYAMDYWGQGTSVTVSS
VL: DIVMTQAAPSVPVTPGESVSISCRSSKSLLHSNGNTYLYWFLQRPGQSPQLLIYRMSNLASGVPDRFSGSGSGTAFTLRISKVEAEDVGVYYCMQHLEYPYTFGGGTKLDVK
notes: also called Ab64 IgG
On to B1, for which the binding result in assay [1] is reported as “binds”; in assay [2], “binds”; in assay [3], “binds”; in assay [4] it was “no binding”; in assay [5], “binds”; in assay [6], “binds”.

B2: Ab64 Fab (Fab, V domains shown)
VH: B1 VH
VL: B1 VL
notes: also called Fab fragment of Ab64; source: cleavage of purified Ab64 IgG with the Pierce Fab Preparation Kit
On to B2, for which the binding result in assay [2] is listed as “binds”.

B3: Ab53 mouse monoclonal antibody (IgG2a,κ) specific for FtGroEL (antibody, V domains shown)
VH: EVKLLESGGGLVQPGGSMKLSCVASGFTFSIFWMNWVRQSPEKGLEWVAEVRLKSNNYATHYAESVKGRFTISRDDSKSGVYLQMNNLRAEDTGIYYCTRGYYGSNYGEYWGQGTTLTVSS
VL: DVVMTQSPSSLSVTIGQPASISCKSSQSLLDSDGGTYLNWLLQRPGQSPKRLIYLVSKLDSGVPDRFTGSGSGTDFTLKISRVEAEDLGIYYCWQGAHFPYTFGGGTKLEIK
notes: also called Ab53 IgG
Turning to B3, the binding result in assay [7], in assay [2], in assay [3], in assay [8], in assay [5] and in assay [6] was “binds” in each case.

B4: Ab53 Fab (Fab, V domains shown)
VH: B3 VH
VL: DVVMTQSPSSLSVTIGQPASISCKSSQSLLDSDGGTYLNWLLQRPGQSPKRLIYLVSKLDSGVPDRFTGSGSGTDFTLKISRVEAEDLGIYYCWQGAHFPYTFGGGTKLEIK
notes: also called Fab fragment of Ab53; source: cleavage of purified Ab53 IgG with the Pierce Fab Preparation Kit
For the molecule B4, in assay [2], the binding result is given as “binds”.

For the origin of these results see paper PMC4072690 (PLoS ONE, 2014).
